Molecular target: recombinant SARS-CoV-2 Spike 1 subunit (S1), Alpha S1 construct 1 (SARS-CoV-2 (WHO Alpha (WT) variant, …, UniProt P0DTC2 14-674))

B1: recombinant biotinylated human angiotensin-converting enzyme 2 (ACE2-biotin), construct hACE-GS-6xHIS (receptor)
chain: STIEEQAKTFLDKFNHEAEDLFYQSSLASWNYNTNITEENVQNMNNAGDKWSAFLKEQSTLAQMYPLQEIQNLTVKLQLQALQQNGSSVLSEDKSKRLNTILNTMSTIYSTGKVCNPDNPQECLLLEPGLNEIMANSLDYNERLWAWESWRSEVGKQLRPLYEEYVVLKNEMARANHYEDYGDYWRGDYEVNGVDGYDYSRGQLIEDVEHTFEEIKPLYEHLHAYVRAKLMNAYPSYISPIGCLPAHLLGDMWGRFWTNLYSLTVPFGQKPNIDVTDAMVDQAWDAQRIFKEAEKFFVSVGLPNMTQGFWENSMLTDPGNVQKAVCHPTAWDLGKGDFRILMCTKVTMDDFLTAHHEMGHIQYDMAYAAQPFLLRNGANEGFHEAVGEIMSLSAATPKHLKSIGLLSPDFQEDNETEINFLLKQALTIVGTLPFTYMLEKWRWMVFKGEIPKDQWMKKWWEMKREIVGVVEPVPHDETYCDPASLFHVSNDYSFIRYYTRTLYQFQFQEALCQAAKHEGPLHKCDISNSTEAGQKLFNMLRLGKSEPWTLALENVVGAKNMNVRPLLNYFEPLFTWLKDQNKNSFVGWSTDGGGGSGGGGSHHHHHHH
modifications: biotinylated, 1-10 biotins per ACE2 [mole:mole]; positions not given
In the case of B1, the EC50 is reported as 0.5 nM.

Reference: patent US20240361316A1 (ORASURE TECHNOLOGIES, published 2024)
